{"source": "paper PMC3692002", "about": "(Proteins, 2011)", "molecular_target": "the molecule itself", "test": "static light scattering", "data": [{"protein": "UgR76, uncharacterized 73 residue domain from Ruminococcus gnavus (domain or fragment) MSEHREGTLFYDTETGRYDIRFDLESFYGGLHCGECFDVKVKDVWVPVRIEMGDDWYLVGLNVSRLDGLRVRMLEHHHHHH", "values": [{"measurement": "stoichiometry N", "result": 2}]}]}
